# In article PMC10014536:
# Molecular target: bovine rhodopsin (bovine) (UniProt P02699)
# Chain of UniProt P02699 (P02699 whole entry): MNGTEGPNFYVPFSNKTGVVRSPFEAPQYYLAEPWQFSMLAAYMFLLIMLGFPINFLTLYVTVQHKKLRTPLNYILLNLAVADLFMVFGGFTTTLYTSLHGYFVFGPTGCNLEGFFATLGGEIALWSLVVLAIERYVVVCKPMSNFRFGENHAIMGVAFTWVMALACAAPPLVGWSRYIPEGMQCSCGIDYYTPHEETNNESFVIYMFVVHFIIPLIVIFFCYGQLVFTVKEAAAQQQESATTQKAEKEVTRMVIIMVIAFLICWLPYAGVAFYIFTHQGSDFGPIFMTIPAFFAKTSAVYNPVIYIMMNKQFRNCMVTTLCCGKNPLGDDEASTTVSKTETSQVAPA
substance,measurement,value
Gso (Gs subunit chimera with a Go tail),"light-evoked second messenger (cAMP) plate reader assay in transfected HEK293 cells, G-protein subtype profile of bovine rhodopsin (Supplementary Figure S5)",10%
